Data from PMC2175515, “Hfq stimulates the activity of the CCA-adding enzyme”.

Biological target: Hfq (Escherichia coli, UniProt P0A6X3 1-102)
Experiment: competition; competitor 20-600 fmol vs 20 fmol labelled tRNA (N1); Same conditions as the CCA-addition assay (30 °C, 1 and 10 min); buffer, salt and pH not in the material; native 6% polyacrylamide gel
Settings: protein: recombinant; chain copies: 6

Sequence of Hfq (P0A6X3 whole entry): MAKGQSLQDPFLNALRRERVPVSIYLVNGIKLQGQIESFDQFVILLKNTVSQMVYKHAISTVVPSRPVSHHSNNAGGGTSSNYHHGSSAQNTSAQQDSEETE

B1: pCR 2.1 TOPO run-off transcript (ssRNA)
RNA: GGGCGAAUUGGGCCCUCUAGAUGCAUGCUCGAGCGGCCGCCAGUGUGAUGGAU
Q: Does B1 bind?
A: no binding
